Test results published in PMC8894135.

What was measured:
Test in all cases: cryo-EM structure; single particle analysis of extended AlgoCIS particles assembled in A. machipongonensis and purified whole, in buffer B (20 mM Tris pH 7.5, 150 mM NaCl); cap 2.5 Å, extended sheath-tube 2.4 Å, baseplate 2.7-2.9 Å, whole particle 4.4 Å
[1] = biological target: Alg6 (plug protein of AlgoCIS) (Algoriphagus machipongonensis PR1 (endogenous in A. machipongonensis))
[2] = biological target: Alg16A (cap protein of AlgoCIS) (Algoriphagus machipongonensis PR1 (endogenous in A. machipongonensis))
[3] = biological target: Alg16B (cap adaptor protein of AlgoCIS) (Algoriphagus machipongonensis PR1 (endogenous in A. machipongonensis))
[4] = biological target: Alg8 (central spike protein of AlgoCIS) (Algoriphagus machipongonensis PR1 (endogenous in A. machipongonensis))
[5] = biological target: Alg1 (inner tube protein of AlgoCIS) (Algoriphagus machipongonensis PR1 (endogenous in A. machipongonensis))
[6] = biological target: Alg11 (baseplate wedge protein of AlgoCIS, forms the spike cage) (Algoriphagus machipongonensis PR1 (endogenous in A. machipongonensis))

“Alg6 (plug protein of AlgoCIS) (natural protein)” gave a stoichiometry N [1] of 3.

“Alg16A (cap protein of AlgoCIS) (natural protein)” was tested, and the stoichiometry N [2] was 6.

“Alg16B (cap adaptor protein of AlgoCIS) (natural protein)” gave a stoichiometry N [3] of 6.

Work on “Alg8 (central spike protein of AlgoCIS) (natural protein)” yielded a stoichiometry N [4] of 3.

In the case of “Alg1 (inner tube protein of AlgoCIS) (natural protein)”, the stoichiometry N [5] is reported as 6.

In the case of “Alg11 (baseplate wedge protein of AlgoCIS, forms the spike cage) (natural protein)”, the stoichiometry N [6] is reported as 6.
